The target of assay [1] is T1, human CLDN18.2 (human).
T1 construct: The cell line is named under assay; also called claudin-18 isoform 2
The experiment in a line: flow cytometry on KATOIII cells (item 2). In general terms: Flow cytometry measures light scatter and fluorescence of single cells or particles in a stream.

The target in assay [2] is T1, human CLDN18.2. The experiment in a line: flow cytometry on CHO-CLDN18.2 cells.
In assay [3] the target is T1, human CLDN18.2. The experiment in a line: cell-based or functional assay.
Assay [4] has as its target T1, human CLDN18.2. The experiment in a line: flow cytometry on KATOIII cells (item 3); KATOIII cells; item 3, compared with the humanized antibodies.
Experimental: (§1) Flow cytometry was used to detect the binding capacity of anti-CLDN18.2 antibodies and ADCs to cells expressing CLDN18.2, and the specificity of not binding to CLDN18.1 of the antibody was further detected. […] The mixture was incubated at 4° C. for 1 h and washed twice with PBS.
Assay [5] has as its target T1, human CLDN18.2. The experiment in a line: flow cytometry on KATOIII cells (CLDN18.2 positive), PE anti-human IgG-Fc secondary antibody.
Experimental: as §1
The target in assay [6] is T1, human CLDN18.2. The experiment in a line: flow cytometry on KATOIII cells (item 2); KATOIII cells; item 2, compared with IMAB362.
Experimental: as §1
The target of assay [7] is T1, human CLDN18.2. The experiment in a line: flow cytometry on CHO-CLDN18.2 cells; CHO-CLDN18.2 cells.
Experimental: as §1
Assay [8] addresses T1, human CLDN18.2. The experiment in a line: flow cytometry on KATOIII cells (item 3); KATOIII cells.
Experimental: as §1
A further assay concerns the target human CLDN18.1 (human, UniProt P56856 1-261). The experiment in a line: flow cytometry on CHO-CLDN18.1 cells, PE anti-human IgG-Fc secondary antibody.

For orientation: EC50 means the concentration needed to bring the measured effect to its halfway point. The low end stands for an effect from little substance, the high end for a need for much substance. In general, EC50 (read off the curve) refers to the concentration that produces a half-maximal response.

human CLDN18.1, sequence (P56856 whole entry): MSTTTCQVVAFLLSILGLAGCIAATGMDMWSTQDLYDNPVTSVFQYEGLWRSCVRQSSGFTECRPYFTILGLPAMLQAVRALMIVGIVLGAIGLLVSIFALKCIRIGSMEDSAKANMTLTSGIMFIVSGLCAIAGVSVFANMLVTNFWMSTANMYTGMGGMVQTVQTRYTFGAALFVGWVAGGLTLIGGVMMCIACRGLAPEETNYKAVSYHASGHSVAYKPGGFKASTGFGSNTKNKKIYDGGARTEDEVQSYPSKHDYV
Experimental for human CLDN18.1: as §1

B1: positive Antibody IMAB362 (antibody, V domains shown)
VH: QVQLQQPGAELVRPGASVKLSCKASGYTFTSYWINWVKQRPGQGLEWIGNIYPSDSYTNYNQKFKDKATLTVDKSSSTAYMQLSSPTSEDSAVYYCTRSWRGNSFDYWGQGTTLTVSS
VL: DIVMTQSPSSLTVTAGEKVTMSCKSSQSLLNSGNQKNYLTWYQQKPGQPPKLLIYWASTRESGVPDRFTGSGSGTDFTLTISSVQAEDLAVYYCQNDYSYPFTFGSGTKLEIKR
With B1, the EC50 with human CLDN18.2 [1] is 8.08 nM. This molecule also returned an EC50 in the assay with human CLDN18.2 [2] of 30 nM. For the same molecule, in the assay with human CLDN18.2 [3], the “ADCC Reporter Bioassay EC50 (luciferase, Jurkat-NFAT-luc-FcγRIIIa effector cells)” value turned out to be 0.795 nM and the “CDC IC50 (cell killing rate of CHO-CLDN18.2 cells with 5% human serum complement, CCK-8)” value turned out to be 5.87 nM.

B2: chimeric Antibody CH239H-2-K-6 (antibody, human IgG1, kappa, V domains shown)
VH: EVKLQESGGGLVKPGGSLKVSCAASGFTFSDYGMHWVRQAPEKGLEWVAYISRGRSTTYSTDTVKGRFTISRDSAKHTLFLQMTSLRSEDTAMYYCARGSYYGNAMDYWGQGTSVTVSS
VL: DIVMTQSPSSLTVTAGERVTMSCKSSQSLLNSGNQRNYLTWYQQKPGQPPKLLIYWASTRESGVPDRFTGSGSGTDFTLTISSVQAEDLAVYFCQSAYSYPFTFGSGTKLEIKR
notes: Chimeric antibody (murine variable region + human constant region)
In the case of B2, the EC50 with human CLDN18.2 [4] was 6.11 nM; with human CLDN18.2 [6], 6.29 nM; in the assay with human CLDN18.2 [7] it was 19.9 nM. Further, in the assay with human CLDN18.2 [5], the concentration for a half-maximal effect (EC50 (read off the curve)) was approximately 20 nM.

B3: chimeric antibody CH101H1-K-1 (antibody, human IgG1, kappa, V domains shown)
VH: EVQLQESGPELVKPGASVKISCKASGYSFTSYYIHWVKQRPGQGLEWIGWIYPGSGNTKYNEKFKGKATLTADTSSSTAYMQLSSLTSEDSAVYYCARGMDYGNYYLDYWGQGTTLTVSS
VL: DIVMTQSHKFMSTSVGDRVSITCKASQDVGTAVAWYQQKPGQSPKLLIYWASTRHTGVPDRFTGSGSGTDFTLTISNVQSEDLADYFCQQYSSYLTFGAGTKLELKR
notes: as for B2
As to B3, the concentration for a half-maximal effect (EC50 (read off the curve)) in the assay with human CLDN18.2 [5] was approximately 10 nM.

B4: humanized Antibody H239H-2a-K-6a (antibody, human IgG1, kappa, V domains shown)
VH: EVQLLESGGGLVQPGGSLRLSCAASGFTFSDYGMHWVRQAPGKGLEWVAYISRGRSTTYSTDTVKGRFTISRDSSKNTLYLQMNSLRAEDTAVYYCARGSYYGNAMDYWGQGTLVTVSS
VL: DIVMTQSPDSLAVSLGERATINCKSSQSLLNSGNQRNYLTWYQQKPGQPPKLLIYWASTRESGVPDRFSGSGSGTDFTLTISSLQAEDVAVYYCQSAYSYPFTFGGGTKLEIKR
notes: Humanized antibody (humanized variable region + human constant region)
As to B4, the 50% effective concentration (EC50) in the assay with human CLDN18.2 [8] worked out at 6.2 nM; with human CLDN18.2 [7] it was 22.8 nM. Also, the binding result in the assay with human CLDN18.1 is given as “no binding (tested: about 330 nM)”.

B5: humanized Antibody H239H-2b-K-6a (antibody, human IgG1, kappa, V domains shown)
VH: EVQLLESGGGLVQPGGSLRLSCAASGFTFSDYGMHWVRQAPGKGLEWVAYISRGRSTTYSTDTVKGRFTISRDNSKNTLYLQMNSLRAEDTAVYYCARGSYYGNAMDYWGQGTLVTVSS
VL: DIVMTQSPDSLAVSLGERATINCKSSQSLLNSGNQRNYLTWYQQKPGQPPKLLIYWASTRESGVPDRFSGSGSGTDFTLTISSLQAEDVAVYYCQSAYSYPFTFGGGTKLEIKR
notes: as for B4
Regarding B5, the EC50 in the assay with human CLDN18.2 [8] is 6.92 nM. The molecule also yielded an EC50 with human CLDN18.2 [7] of 23.3 nM. Further, the binding result with human CLDN18.1 was “no binding (tested: about 330 nM)”. In addition, in the assay with human CLDN18.2 [3], the “ADCC Reporter Bioassay EC50 (luciferase, Jurkat-NFAT-luc-FcγRIIIa effector cells)” value was determined as 0.0625 nM and the “CDC IC50 (cell killing rate of CHO-CLDN18.2 cells with 5% human serum complement, CCK-8)” value was 0.291 nM.

B6: chimeric antibody CH394H2-K-1 (antibody, human IgG1, kappa, V domains shown)
VH: EVKLQESGAELMKPGASVKLSCKATGYTFTGYWIEWVKQRPGHGLEWIGEILPGSGSTNYNEKFKGKATFTADTSSNTAYMQLSSLTTEDSAIYYCARAPLEGLRSGFAYWGQGTLVTVSA
VL: DIVLTQSPASLAVSLGQRATISCRASESVDSYGNSFMHWYQQKPGQPPKLLIYRASNLESGIPARFSGSGSRTDFTLTINPVEADDVATYYCQQSNEDPRTFGGGTKLEIKR
notes: as for B2
As for B6, in the assay with human CLDN18.2 [5], the “EC50 (read off the curve)” value was approximately 20 nM.

Values taken from patent US20250333498A1 (BIO THERA SOLUTIONS, published 2025).
